Data published in US20240117018A1.

Legend:
Assay in all cases: cell-based or functional assay
[1] = molecular target: HIV-1 Env of pseudovirus R1166.c01 (HIV-1)
[2] = molecular target: HIV-1 Env of pseudovirus BJOX028000.10.3 (HIV-1)
[3] = molecular target: HIV-1 Env of pseudovirus Ce1172_H1 (HIV-1)
[4] = molecular target: HIV-1 Env of pseudovirus PVO.4 (HIV-1)
[5] = molecular target: HIV-1 Env of pseudovirus 3016.v5.c45 (HIV-1)
[6] = molecular target: HIV-1 Env of pseudovirus Q259.d2.17 (HIV-1)
[7] = molecular target: HIV-1 Env of pseudovirus CAP210.2.00.E8 (HIV-1)
[8] = molecular target: HIV-1 Env of pseudovirus 3103.v3.c10 (HIV-1)
[9] = molecular target: HIV-1 Env of pseudovirus CNE20 (HIV-1)
[10] = molecular target: HIV-1 Env of pseudovirus 620345.c01 (HIV-1)
[11] = molecular target: HIV-1 Env of pseudovirus T250-4 (HIV-1)
[12] = molecular target: HIV-1 Env of pseudovirus 62357_14_D3_4589 (HIV-1)
[13] = molecular target: MuLV envelope (negative control pseudovirus) (MuLV)
[14] = molecular target: HIV-1 Env of pseudovirus X1254_c3 (HIV-1)
[15] = molecular target: HIV-1 Env of pseudovirus Du422.1 (HIV-1)
[16] = molecular target: HIV-1 Env of pseudovirus AC10.0.29 (HIV-1)
[17] = molecular target: HIV-1 Env of pseudovirus Du172.17 (HIV-1)
[18] = molecular target: HIV-1 Env of pseudovirus X2088_c9 (HIV-1)
[19] = molecular target: HIV-1 Env of pseudovirus 6952.v1.c20 (HIV-1)
[20] = molecular target: HIV-1 Env of pseudovirus Ce1086_B2 (HIV-1)
[21] = molecular target: HIV-1 Env of pseudovirus 191955_A11 (HIV-1)

N49P7-54TY (antibody)
IC50 (Titer in TZM.bl cells) [1]: 0.131 µg/mL | IC80 (Titer in TZM.bl cells) [1]: 0.47 µg/mL | MPI [1]: 100 | IC50 (Titer in TZM.bl cells) [2]: 0.009 µg/mL | IC80 (Titer in TZM.bl cells) [2]: 0.044 µg/mL | MPI [2]: 100 | IC50 (Titer in TZM.bl cells) [3]: > 25 µg/mL | IC80 (Titer in TZM.bl cells) [3]: > 25 µg/mL | MPI [3]: 23 | IC50 (Titer in TZM.bl cells) [4]: 0.079 µg/mL | IC80 (Titer in TZM.bl cells) [4]: 0.314 µg/mL | MPI [4]: 100 | IC50 (Titer in TZM.bl cells) [5]: 0.206 µg/mL | IC80 (Titer in TZM.bl cells) [5]: 1.91 µg/mL | MPI [5]: 92 | IC50 (Titer in TZM.bl cells) [6]: 0.132 µg/mL | IC80 (Titer in TZM.bl cells) [6]: 1.13 µg/mL | MPI [6]: 95 | IC50 (Titer in TZM.bl cells) [7]: 0.691 µg/mL | IC80 (Titer in TZM.bl cells) [7]: 3.33 µg/mL | MPI [7]: 97 | IC50 (Titer in TZM.bl cells) [8]: 0.151 µg/mL | IC80 (Titer in TZM.bl cells) [8]: 0.55 µg/mL | MPI [8]: 100 | IC50 (Titer in TZM.bl cells) [9]: 0.046 µg/mL | IC80 (Titer in TZM.bl cells) [9]: 0.16 µg/mL | MPI [9]: 100 | IC50 (Titer in TZM.bl cells) [10]: > 25 µg/mL | IC80 (Titer in TZM.bl cells) [10]: > 25 µg/mL | MPI [10]: 0 | IC50 (Titer in TZM.bl cells) [11]: 1.02 µg/mL | IC80 (Titer in TZM.bl cells) [11]: 19.6 µg/mL | MPI [11]: 83 | IC50 (Titer in TZM.bl cells) [12]: 0.055 µg/mL | IC80 (Titer in TZM.bl cells) [12]: 0.192 µg/mL | MPI [12]: 100 | IC50 (Titer in TZM.bl cells) [13]: > 25 µg/mL | IC80 (Titer in TZM.bl cells) [13]: > 25 µg/mL | MPI [13]: 0 | IC50 (Titer in TZM.bl cells) [14]: 0.145 µg/mL | IC80 (Titer in TZM.bl cells) [14]: 0.599 µg/mL | MPI [14]: 100 | IC50 (Titer in TZM.bl cells) [15]: 0.402 µg/mL | IC80 (Titer in TZM.bl cells) [15]: 2.02 µg/mL | MPI [15]: 96 | IC50 (Titer in TZM.bl cells) [16]: > 25 µg/mL | IC80 (Titer in TZM.bl cells) [16]: > 25 µg/mL | MPI [16]: 40 | IC50 (Titer in TZM.bl cells) [17]: 0.124 µg/mL | IC80 (Titer in TZM.bl cells) [17]: 0.529 µg/mL | MPI [17]: 100 | IC50 (Titer in TZM.bl cells) [18]: 0.172 µg/mL | IC80 (Titer in TZM.bl cells) [18]: 0.572 µg/mL | MPI [18]: 100 | IC50 (Titer in TZM.bl cells) [19]: > 25 µg/mL | IC80 (Titer in TZM.bl cells) [19]: > 25 µg/mL | MPI [19]: 20 | IC50 (Titer in TZM.bl cells) [20]: 0.067 µg/mL | IC80 (Titer in TZM.bl cells) [20]: 0.339 µg/mL | MPI [20]: 100 | IC50 (Titer in TZM.bl cells) [21]: 3.04 µg/mL | IC80 (Titer in TZM.bl cells) [21]: > 25 µg/mL | MPI [21]: 72

N49P7YTE (antibody)
IC50 (Titer in TZM.bl cells) [1]: 0.232 µg/mL | IC80 (Titer in TZM.bl cells) [1]: 0.782 µg/mL | MPI [1]: 100 | IC50 (Titer in TZM.bl cells) [2]: 0.018 µg/mL | IC80 (Titer in TZM.bl cells) [2]: 0.155 µg/mL | MPI [2]: 100 | IC50 (Titer in TZM.bl cells) [3]: > 50 µg/mL | IC80 (Titer in TZM.bl cells) [3]: > 50 µg/mL | MPI [3]: 12 | IC50 (Titer in TZM.bl cells) [4]: 0.088 µg/mL | IC80 (Titer in TZM.bl cells) [4]: 0.394 µg/mL | MPI [4]: 100 | IC50 (Titer in TZM.bl cells) [5]: 1.15 µg/mL | IC80 (Titer in TZM.bl cells) [5]: 9.65 µg/mL | MPI [5]: 89 | IC50 (Titer in TZM.bl cells) [6]: 5.34 µg/mL | IC80 (Titer in TZM.bl cells) [6]: 44.1 µg/mL | MPI [6]: 82 | IC50 (Titer in TZM.bl cells) [7]: 3.11 µg/mL | IC80 (Titer in TZM.bl cells) [7]: 13.9 µg/mL | MPI [7]: 99 | IC50 (Titer in TZM.bl cells) [8]: 0.322 µg/mL | IC80 (Titer in TZM.bl cells) [8]: 0.583 µg/mL | MPI [8]: 100 | IC50 (Titer in TZM.bl cells) [9]: 0.11 µg/mL | IC80 (Titer in TZM.bl cells) [9]: 0.317 µg/mL | MPI [9]: 99 | IC50 (Titer in TZM.bl cells) [10]: > 50 µg/mL | IC80 (Titer in TZM.bl cells) [10]: > 50 µg/mL | MPI [10]: 0 | IC50 (Titer in TZM.bl cells) [11]: > 50 µg/mL | IC80 (Titer in TZM.bl cells) [11]: > 50 µg/mL | MPI [11]: 43 | IC50 (Titer in TZM.bl cells) [12]: 0.039 µg/mL | IC80 (Titer in TZM.bl cells) [12]: 0.173 µg/mL | MPI [12]: 100 | IC50 (Titer in TZM.bl cells) [13]: > 50 µg/mL | IC80 (Titer in TZM.bl cells) [13]: > 50 µg/mL | MPI [13]: 4 | IC50 (Titer in TZM.bl cells) [14]: 26.2 µg/mL | IC80 (Titer in TZM.bl cells) [14]: > 50 µg/mL | MPI [14]: 59 | IC50 (Titer in TZM.bl cells) [15]: 13.2 µg/mL | IC80 (Titer in TZM.bl cells) [15]: > 50 µg/mL | MPI [15]: 76 | IC50 (Titer in TZM.bl cells) [16]: > 50 µg/mL | IC80 (Titer in TZM.bl cells) [16]: > 50 µg/mL | MPI [16]: 28 | IC50 (Titer in TZM.bl cells) [17]: 0.283 µg/mL | IC80 (Titer in TZM.bl cells) [17]: 0.953 µg/mL | MPI [17]: 100 | IC50 (Titer in TZM.bl cells) [18]: 0.329 µg/mL | IC80 (Titer in TZM.bl cells) [18]: 1.06 µg/mL | MPI [18]: 100 | IC50 (Titer in TZM.bl cells) [19]: > 50 µg/mL | IC80 (Titer in TZM.bl cells) [19]: > 50 µg/mL | MPI [19]: 13 | IC50 (Titer in TZM.bl cells) [20]: 0.113 µg/mL | IC80 (Titer in TZM.bl cells) [20]: 0.53 µg/mL | MPI [20]: 99 | IC50 (Titer in TZM.bl cells) [21]: 39 µg/mL | IC80 (Titer in TZM.bl cells) [21]: > 50 µg/mL | MPI [21]: 56
